Common to all, as to format: in vivo
Series [1] concerns Btk resistant Diamondback moth. Nature of the series: Diet-surface overlay (DSO) bioassay. As for the experimental part: (§1) Diet-surface overlay bioassays are conducted with artificial diet mixes without antibiotics in 1.5 cm^2 cell bioassay trays(s). Artificial diets are commercially available from Southland Products Inc. Diets were prepared by dispersing 0.5 mL of molten diet to each 1.5 cm^2 cell. After solidification, 0.1 mL enzyme treatments were dispersed on top of diet in each cell and the tray was gently rocked in an orbital shaker to spread the liquid uniformly over the diet surface. Trays were placed under clean airflow until the surface of each cell was uniformly dried. One or two 16-cell sections were used per treatment (the number in larvae treated was 16 or 32).
(§2) One healthy first instar larva was placed into each treatment cell, each 16-cell section was covered with a re-sealable lid and incubated at 27° C. and light-dark period of 16:8 hrs. After 7 days, and according to the species, the number of individuals in the following developmental categories was recorded.
(§3) Diamondback moth (Plutella xylostella): Dead Larva (lack of movement), Larva Stage I (≤50% relative size), Larva Stage II (100% relative size, full size), Early Pupa (light green color), Late Pupa (light-dark brown color), and Adult.
(§4) Negative/untreated controls were treated with filtered water and positive controls were treated with lethal doses of Bacillus thuringiensis subsp. Kurstaki (Btk) spores at 1000 ppm.
However, both neutral proteases reduced the number of individuals reaching adult stage.

For series [2], the system named is Fall armyworm (Spodoptera frugiperda). Nature of the series: Diet-surface overlay (DSO) bioassay. As for the experimental part:
as §1, §2, §4

Series [3] concerns Diamondback moth (Plutella xylostella). Nature of the series: Diet-surface overlay (DSO) bioassay. Conditions: Table 41, individuals of n = 16 after 7 days. As for the experimental part: as §1, §2, §3, §4
Series [4] relates to Black gloss snails (Zonitoides nitidus). The series is described as follows: Antifeedant and molluscicide bioassay (artificial diet): consumption, survival, weight gain. Conditions: Table 63; n = 12, 7 days; control diet 2.50. As for the experimental part: Two-week old garden snails (Cornu aspersum) and full-size black gloss snails (Zonitoides nitidus) were maintained in a semi-darkened tank at 68-70° F. at high humidity, provided with a wet sponge in a petri dish. Snails were transferred to fresh tank every 2-3 days, and they were feed ad libitum with cucumber slices supplemented with calcium carbonate tablets. Individuals were reared in the laboratory for at least a week to fully acclimate to laboratory conditions prior to testing. The individuals ranged between 3 weeks to 2 months old at the time of bioassay.
Filter-sterilized recombinant enzymes including proteases and lipases were prepared as indicated in Example 25. Corresponding controls (e.g., buffer, fermentation of non-recombinant strain, water) were be prepared accordingly. […]
12 snails were randomly assigned to each treatment, labeled with permanent marker on the top of the shell for identification, and their weight (mg) was recorded before treatment. […] At the time of treatment replacement, treatment consumption, weight, and mortality were recorded.
Alkaline Protease and Keratinase and Lipases from Pseudomonas fluorescens (Pf,), were prepared as described above and their antifeedant and molluscicidal effects were tested. […] The units (U) of enzyme activity was determined as the amount of enzyme required to breakdown 1 μM of substrate per minute. […]

The mark [5] stands for this setting: Table 42, Btk resistant, n = 32, doses as E69, water 0.
Where [6] appears, read: Table 43, n = 32, Keratinase 260 U/mL diet, water 0.

One molecule from US20240324599A1, “PESTICIDAL ENZYMES FOR USE ON NEMATODES, INSECTS, AND MOLLUSKS” (priority 2023, published 2024) can be followed below.

B1: Keratinase: protease resuspended in water at 0.25 g/mL (protein, listed as Bacillus licheniformis)
chain: MMRKKSFWLGMLTAFMLVFTMAFSDSASAAQPAKNVEKDYIVGFKSGVKTASVKKDIIKESGGKVDKQFRIINAAKAKLDKEALKEVKNDPDVAYVEEDHVAHALAQTVPYGIPLIKADKVQAQGFKGANVKVAVLDTGIQASHPDLNVVGGASFVAGEAYNTDGNGHGTHVAGTVAALDNTTGVLGVAPSVSLYAVKVLNSSGSGSYSGIVSGIEWATTNGMDVINMSLGGASGSTAMKQAVDNAYARGVVVVAAAGNSGSSGNTNTIGYPAKYDSVIAVGAVDSNSNRASFSSVGAELEVMAPGAGVYSTYPTNTYATLNGTSMVSPHVAGAAALILSKHPNLSASQVRNRLSSTATYLGSSFYYGKGLINVEAAAQ
modifications: Protease _ keratinase
notes: protease resuspended in water at 0.25 g/mL
B1: the “Dead Larva” value in series [1] (Table 42, Btk resistant strain, individuals of n = 32 after 7 days, U/mL diet: SEQ 127 2, Neutral 200, Keratinase 260, water 1) is reported as 19; in series [2] (Table 43, individuals of n = 32 after 7 days, Keratinase 260 U/mL diet, water 2), 32; in series [3] (U/mL diet: SEQ 127 0.206, Acid 2.5, Alkaline 190, Neutral 20, Keratinase 26, Btk spores 1000 ppm, water 0) it was 1. Also, the “Larva Stage I” value in series [1] (setting [5]) is reported as 11; in series [2] (setting [6]), 0; in series [3] (doses as E63, water 0), 0. The “Larva Stage II” value in series [1] (setting [5]) is listed as 2; in series [2] (setting [6]), 0; in series [3] (doses as E63, water 0), 0. For the same molecule, the “Early Pupa” value in series [1] (Table 42, Btk resistant, n = 32, doses as E69, water 1) amounted to 0; in series [3] (doses as E63, water 3), 11. In addition, the Adult in series [1] (Table 42, Btk resistant, n = 32, doses as E69, water 8) came to 0; in series [3] (doses as E63, water 10) it was 0. For the same molecule, the “Late Pupa” value amounted to 0 in series [1] (Table 42, Btk resistant, n = 32, doses as E69, water 22) and 4 in series [3] (doses as E63, water 3). Further, the mortality entry in series [1] (text to Table 42, 10× higher protease activity rate) is “more than 50%”. For the same molecule, the “effect on Btk resistant Diamondback moth larvae, in words” value in series [1] (text to Tables 42, 45, 47) is listed as “strong stunting of survival larvae”. The “Larva Stage III” value in series [2] (setting [6]) is reported as 0. Besides, the “Larva Stage IV” value in series [2] (Table 43, n = 32, Keratinase 260 U/mL diet, water 30) worked out at 0. Moreover, in series [2] (text to Tables 43, 46, 48, 50), the “effect on Fall armyworm larvae, in words” value is “lethal”. In series [4], the Diet consumption is listed as 0.70 g.
